PMC5701058, “Structure of Rap1b bound to talin reveals a pathway for triggering integrin activation” (Nature Communications, 2017)
Residue numbers refer to the chain shown, from its start. In names and notes the source's numbering stands. Blank lines part the entries; values can stand above or below the molecule they belong to.

T1: Rap1b (G12V), loaded with GMP-PNP (active form) (human, UniProt P61224 1-184, G12V)
T1 construct: Rap1b, human, with G12V; Loaded with the GTP analog GMP-PNP; Made by mutagenesis; Probably full length; also called active Rap1b; GMP-PNP loaded Rap1b
T1 sequence (looked up): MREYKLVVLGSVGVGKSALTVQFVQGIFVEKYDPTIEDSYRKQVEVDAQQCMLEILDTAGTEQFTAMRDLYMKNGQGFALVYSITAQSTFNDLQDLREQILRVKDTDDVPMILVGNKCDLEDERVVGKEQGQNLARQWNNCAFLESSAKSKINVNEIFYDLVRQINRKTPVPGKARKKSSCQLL

T2: mouse RIAM-RAPH (149–438) (mouse, UniProt Q8R5A3 149-438)
T2 construct: RIAM, mouse, RA-PH domains, residues 149-438
T2 sequence (looked up): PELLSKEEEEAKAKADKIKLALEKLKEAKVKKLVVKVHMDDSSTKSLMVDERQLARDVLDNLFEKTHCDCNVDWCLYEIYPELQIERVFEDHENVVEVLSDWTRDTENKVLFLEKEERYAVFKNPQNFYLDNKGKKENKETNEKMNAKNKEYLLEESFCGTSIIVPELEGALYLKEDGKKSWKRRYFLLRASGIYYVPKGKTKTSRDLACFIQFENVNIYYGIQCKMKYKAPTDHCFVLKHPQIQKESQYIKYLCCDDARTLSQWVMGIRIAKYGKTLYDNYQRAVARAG

B1: mouse RIAM-RAPH (149–438) (domain or fragment)
chain: T2 sequence (looked up)
B2: mouse talin-F0 (1–86) (domain or fragment, UniProt P26039 1-86, looked up)
chain: MVALSLKISIGNVVKTMQFEPSTMVYDACRMIRERIPEALAGPPNDFGLFLSDDDPKKGIWLEAGKALDYYMLRNGDTMEYRKKQR
notes: talin (talin-1), mouse, F0 domain, residues 1-86; Isotope labelled or unlabelled as the NMR sample needed; also called F0 domain of talin
B3: mouse talin-H (1–429) (domain or fragment, UniProt P26039 1-429, looked up)
chain: MVALSLKISIGNVVKTMQFEPSTMVYDACRMIRERIPEALAGPPNDFGLFLSDDDPKKGIWLEAGKALDYYMLRNGDTMEYRKKQRPLKIRMLDGTVKTIMVDDSKTVTDMLMTICARIGITNHDEYSLVRELMEEKKDEGTGTLRKDKTLLRDEKKMEKLKQKLHTDDELNWLDHGRTLREQGVEEHETLLLRRKFFYSDQNVDSRDPVQLNLLYVQARDDILNGSHPVSFDKACEFAGFQCQIQFGPHNEQKHKAGFLDLKDFLPKEYVKQKGERKIFQAHKNCGQMSEIEAKVRYVKLARSLKTYGVSFFLVKEKMKGKNKLVPRLLGITKECVMRVDEKTKEVIQEWSLTNIKRWAASPKSFTLDFGDYQDGYYSVQTTEGEQIAQLIAGYIDIILKKKKSKDHFGLEGDEESTMLEDSVSPKKS
notes: talin (talin-1), mouse, head domain, residues 1-429; Talin-H was cloned into pET28t and into pGST-1; also called talin head domain
B4: C-terminal truncated Rap1b (1–167, G12V), loaded with GMP-PNP (domain or fragment, human, UniProt P61224 1-167, looked up)
chain: MREYKLVVLGSVGVGKSALTVQFVQGIFVEKYDPTIEDSYRKQVEVDAQQCMLEILDTAGTEQFTAMRDLYMKNGQGFALVYSITAQSTFNDLQDLREQILRVKDTDDVPMILVGNKCDLEDERVVGKEQGQNLARQWNNCAFLESSAKSKINVNEIFYDLVRQINR
notes: Rap1b, human, residues 1-167, G12V, in pET28t; Loaded with GMP-PNP; isotope labelled or unlabelled as the NMR sample needed; The removal of the tag is told for the assignment samples; not shown: His6, N-terminal, cleaved
B5: GFP-Rap1b (G12V), loaded with GMP-PNP (natural protein, human, UniProt P61224 1-184, looked up)
chain: T1 sequence (looked up)
notes: Rap1b (G12V) in a pRSET vector; The name puts GFP first, the methods call it a C-terminal GFP fusion tag; also called GMP-PNP-loaded GFP-Rap1b (G12V); not shown: GFP, C-terminal, kept
B6: Rap1b (G12V), GMP-PNP loaded, of the GST pull-down of Fig. 3b (natural protein, human, UniProt P61224 1-184, looked up)
chain: T1 sequence (looked up)
notes: human full-length Rap1b in a pGST-1 vector, with G12V as the active form; also called active Rap1b
B7: membrane-anchored Rap1b_TM2 (G12V, C51S, C118S, C141S), loaded with GMP-PNP (natural protein, human, UniProt P61224 1-184, looked up)
chain: T1 sequence (looked up) with C51S, C118S, C141S
modifications: thiol group of Cys 180 joined to the maleimide group of the lipid PE MCC in vesicles
notes: Rap1b, human, with G12V, C51S, C118S, C141S; holds the C-terminal Cys 180 (so in the source); LUVs: 96% POPC, 1% PIP2, 3% PE MCC; MLVs: 87% POPC, 10% PIP2, 3% PE MCC; also called LUV-Rap1b; LUV-Rap1b (GMP-PNP); source: E. coli BL21 (DE3), purified, then tethered to vesicles (LUVs or MLVs) by thiol-maleimide crosslinking

What was measured:
[1] = molecular target: membrane-anchored Rap1b_TM2 (G12V, C51S, C118S, C141S), loaded with GMP-PNP (human) (UniProt P61224); experiment: co-sedimentation; vesicle co-sedimentation: 10 μM talin-H or full-length talin with 10 μM MLV-Rap1b, MLV only or MLV + Rap1b; RT 15 min, 22,000 r.p.m. 35 min; pellet on SDS-PAGE, band normalized to MLV only
[2] = molecular target: T3, GFP-Rap1b (G12V), loaded with GMP-PNP (human, UniProt P61224 1-184, G12V); experiment: MST; GMP-PNP loaded
[3] = molecular target: T1, Rap1b (G12V), loaded with GMP-PNP …; experiment: NMR titration; HSQC titration of 45 μM 15N-labeled talin-F0 with increasing GMP-PNP-loaded Rap1b (G12V); average Kd of four residues; conditions: both partners purified
[4] = molecular target: B7; experiment: co-sedimentation; vesicle co-sedimentation: 10 μM talin-H or full-length talin with 10 μM MLV-Rap1b, MLV only or MLV + Rap1b; RT 15 min, 22,000 r.p.m. 35 min; pellet on SDS-PAGE, band normalized to MLV only; conditions: both partners purified
[5] = molecular target: T3, GFP-Rap1b (G12V), loaded with GMP-PNP; experiment: MST; GMP-PNP loaded; estimated, saturation not reached
[6] = molecular target: membrane-anchored Rap1b_TM2 (G12V, C51S, C118S, C141S), loaded with GMP-PNP (human, UniProt P61224 1-184, G12V | C51S | C118S | C141S, thiol group of Cys 180 joined to the maleimide group of the lipid PE MCC in vesicles); experiment: ITC; LUV-anchored Rap1b, GMP-PNP; 2nd experiment
[7] = molecular target: T4, mouse full-length talin (mouse, UniProt P26039 1-2541); experiment: NMR titration; 2D HSQC of 45 μM GMP-PNP loaded 15N-labeled Rap1b (1–167) without and with 90 or 225 μM talin-F0, 90 μM talin-H or 45 μM full-length talin; 25 °C; 25 mM NaH2PO4/Na2HPO4 pH 6.8, 150 mM NaCl, 5 mM MgCl2, 2 mM DTT; conditions: both partners purified
T4 construct: talin (talin-1), mouse, full length, in pET28t

[8] = molecular target: B3; experiment: as above; conditions: both partners purified
[9] = molecular target: T2, mouse RIAM-RAPH (149–438); experiment: MST; 100 nM GFP-Rap1b (G12V) with serial dilutions of the partner; 50 mM Tris-HCl pH 7.5, 100 mM NaCl, 5 mM MgCl2, 2 mM DTT, 0.05% Tween 20; RT; conditions: both partners purified
[10] = molecular target: T4, mouse full-length talin; experiment: pull-down; GST pull-down of Fig. 3b, Rap1b with GDP or GTP analog; ~25 μg GST-fused protein on glutathione-Sepharose 4B, 4 °C, 25 mM Tris-HCl pH 7.5, 150 mM NaCl, 5 mM MgCl2, 1 mM DTT, 0.01% NP-40; conditions: both partners purified
[11] = molecular target: B3; experiment: as above; conditions: both partners purified
[12] = molecular target: B3; experiment: ITC; 200 μM talin-H in the syringe into 15 μM LUV-Rap1b (GMP-PNP) in the cell; 25 °C; 25 mM NaH2PO4/Na2HPO4 pH 6.8, 100 mM NaCl, 5 mM MgCl2; single-site model; conditions: both partners purified

fold co-sedimentation with vesicles, Rap1b anchored against MLV only [1]: 3 fold
Molecule: mouse full-length talin, P26039 1-2541

Molecule: B1
Kd [2]: 5.3 µM

Molecule: B2
Kd [3]: ~162 µM
Kd [2]: 237 µM

Molecule: B3
fold co-sedimentation with vesicles, Rap1b anchored against MLV only [4]: ~1.5 fold
Kd [5]: ~147 µM
Kd [6]: 3.64 µM

Molecule: B4
binding result [7]: binds
binding result [8]: binds

Molecule: B5
binding result [9]: binds

Molecule: B6
binding result [10]: binds
binding result [11]: binds

Molecule: B7
Kd [12]: ~1.52 µM
